Drawing on article PMC2119236, this text covers percent of H chains crosslinked to p88 for one molecule.

Assay [1] deals with H-2Db class I H chain, beta2m-free, in R1E-Db cells (mouse). In words: cross-linking.
The target in assay [2] is H-2Kb class I H chain, beta2m-free, in R1E-Kb cells (mouse). In words: cross-linking.
Chain of H-2Kb class I H chain, beta2m-free, in R1E-Kb cells (mouse) (P01901 22-369): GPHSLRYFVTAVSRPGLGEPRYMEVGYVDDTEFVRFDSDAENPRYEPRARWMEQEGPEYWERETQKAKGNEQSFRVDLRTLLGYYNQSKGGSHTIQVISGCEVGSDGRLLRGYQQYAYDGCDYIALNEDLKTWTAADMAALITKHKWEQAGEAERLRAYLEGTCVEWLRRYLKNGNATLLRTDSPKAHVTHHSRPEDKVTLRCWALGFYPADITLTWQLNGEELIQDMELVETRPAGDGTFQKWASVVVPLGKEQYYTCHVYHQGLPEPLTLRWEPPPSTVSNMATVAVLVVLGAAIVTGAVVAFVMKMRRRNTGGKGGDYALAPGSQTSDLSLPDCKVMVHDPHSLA

Chain of H-2Db class I H chain, beta2m-free, in R1E-Db cells (mouse) (P01899 25-362): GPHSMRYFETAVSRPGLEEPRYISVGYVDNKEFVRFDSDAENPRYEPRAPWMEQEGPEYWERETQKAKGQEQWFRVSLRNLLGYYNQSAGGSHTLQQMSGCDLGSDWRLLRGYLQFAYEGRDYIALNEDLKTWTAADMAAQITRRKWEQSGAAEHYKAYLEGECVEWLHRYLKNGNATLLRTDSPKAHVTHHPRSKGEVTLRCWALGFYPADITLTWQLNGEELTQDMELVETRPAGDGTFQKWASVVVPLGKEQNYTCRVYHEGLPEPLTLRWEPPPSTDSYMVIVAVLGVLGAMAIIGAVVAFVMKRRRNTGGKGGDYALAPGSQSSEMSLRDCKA

B1: p88 (88-kD protein), murine (natural protein)
chain: HDGHDDDAIDIEDDLDDVIEEVEDSKSKSDASTPPSPKVTYKAPVPTGEVYFADSFDRGSLSGWILSKAKKDDTDDEIAKYDGKWEVDEMKETKLPGDKGLVLMSRAKHHAISAKLNKPFLFDTKPLIVQYEVNFQNGIECGGAYVKLLSKTAELSLDQFHDKTPYTIMFGPDKCGEDYKLHFIFRHKNPKTGVYEEKHAKRPDADLKTYFTDKKTHLYTLILNPDNSFEILVDQSVVNSGNLLNDMTPPVNPSREIEDPEDRKPEDWDERPKIADPDAVKPDDWDEDAPSKIPDEEATKPEGWLDDEPEYIPDPDAEKPEDWDEDMDGEWEAPQIANPKCESAPGCGVWQRPMIDNPNYKGKWKPPMIDNPNYQGIWKPRKIPNPDFFEDLEPFKMTPFSAIGLELWSMTSDIFFDNFIISGDRRVVDDWANDGWGLKKAADGAAEPGVVLQMLEAAEERPWLWVVYILTVALPVFLVILFCCSGKKQSNAMEYKKTDAPQPDVKDEEGKEEEKNKRDEEEEEEKLEEKQKSDAEEDGVTGSQDEEDSKPKAEEDEILNRSPRNRKPRRE
For B1, the percent of H chains crosslinked to p88 was determined as 25% in assay [1] and 50% in assay [2].
